Data from article PMC9637222 (Nature Communications, 2022).

Target: T1, InvF (tag-free, purified) (S. Typhimurium, UniProt P69343 1-216)
T1 sequence: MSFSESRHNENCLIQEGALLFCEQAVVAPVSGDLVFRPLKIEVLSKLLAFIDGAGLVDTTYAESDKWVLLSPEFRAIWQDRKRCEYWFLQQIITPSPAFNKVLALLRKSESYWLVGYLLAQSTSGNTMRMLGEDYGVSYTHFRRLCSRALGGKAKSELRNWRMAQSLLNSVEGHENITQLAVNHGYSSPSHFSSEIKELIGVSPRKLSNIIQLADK
Assay: ITC
Conditions: both partners purified

B1: SicA (tag-free, purified) (natural protein)
chain: MDYQNNVSEERVAEMIWDAVSEGATLKDVHGIPQDMMDGLYAHAYEFYNQGRLDEAETFFRFLCIYDFYNPDYTMGLAAVCQLKKQFQKACDLYAVAFTLLKNDYRPVFFTGQCQLLMRKAAKARQCFELVNERTEDESLRAKALVYLEALKTAETEQHSEQEKE
notes: also called wild-type SicA
- binding result: binds
